Results: publication PMC2064056

Tests used:
[1] = molecular target: LF2p, full-length coding region, GAL4 two-hybrid fusion (C. reinhardtii) (UniProt A0MM70); experiment: two-hybrid
[2] = molecular target: LF1p (aa 1-330), GAL4 two-hybrid fusion (C. reinhardtii) (UniProt Q7XJJ6); experiment: two-hybrid

LF3p, full-length coding region, GAL4 two-hybrid fusion (natural protein)
β-galactosidase (Miller units) [1]: 15.8 Miller units
β-galactosidase (Miller units) [2]: 61.1 Miller units
